Assay results as given in patent US20220195068A1 (TENEOBIO, published 2022).

biological target: T1, human PSMA (Prostate Specific Membrane Antigen, Glutamate Carboxypeptidase II) on cells (human, UniProt Q04609 1-750); test: flow cytometry on LNCaP cells
T1 construct: whole, on cells; the cell line is named under assay; also called cell surface expressed PSMA; FOLH1
Protocol: Briefly, 50,000 target cells were stained with a dilution series of purified UniAbs™ for 30 minutes at 4° C. Following incubation, the cells were washed twice with flow cytometry buffer (1X PBS, 1% BSA, 0.1% NaN₃) and stained with goat F(ab')₂ anti-human IgG conjugated to R-phycoerythrin (PE) (Southern Biotech, cat. #2042-09) to detect cell-bound antibodies. After a 20-minute incubation at 4° C., the cells were washed twice with flow cytometry buffer and the mean fluorescence intensity (MFI) was measured by flow cytometry. The MFI of cells stained with secondary antibody alone were used for determination of background signal and binding of each antibody was converted to fold over background. Binding to cynomolgus PSMA positive cells was determined using the same protocol with the following modifications: the target cells were from Freestyle 293-F cells (ThermoFisher R79007) transiently transfected to express the extracellular domain of cynomolgus PSMA. In some experiments EC50 values were calculated using GraphPad Prism 7.

T1 sequence (Q04609 whole entry): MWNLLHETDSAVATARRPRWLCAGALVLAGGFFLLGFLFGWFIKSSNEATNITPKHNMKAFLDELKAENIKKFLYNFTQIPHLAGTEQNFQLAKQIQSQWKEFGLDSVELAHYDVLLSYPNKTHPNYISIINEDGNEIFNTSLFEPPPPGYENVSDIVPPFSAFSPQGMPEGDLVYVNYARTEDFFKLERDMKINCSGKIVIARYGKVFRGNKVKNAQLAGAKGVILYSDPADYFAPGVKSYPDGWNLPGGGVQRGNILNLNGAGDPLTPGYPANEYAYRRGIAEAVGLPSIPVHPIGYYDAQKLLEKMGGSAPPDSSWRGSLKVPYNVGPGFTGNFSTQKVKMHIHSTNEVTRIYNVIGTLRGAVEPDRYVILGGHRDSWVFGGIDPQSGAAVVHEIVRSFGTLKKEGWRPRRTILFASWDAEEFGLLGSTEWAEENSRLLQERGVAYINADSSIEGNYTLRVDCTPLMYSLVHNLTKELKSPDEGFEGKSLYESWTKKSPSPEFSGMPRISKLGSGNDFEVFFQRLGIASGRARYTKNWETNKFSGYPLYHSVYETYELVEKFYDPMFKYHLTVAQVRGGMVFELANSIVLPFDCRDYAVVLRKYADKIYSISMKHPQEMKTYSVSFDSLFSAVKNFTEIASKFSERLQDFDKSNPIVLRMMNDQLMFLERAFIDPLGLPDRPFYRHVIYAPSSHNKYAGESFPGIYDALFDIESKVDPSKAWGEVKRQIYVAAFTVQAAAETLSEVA

fold over the background MFI signal	Binder
216 fold over background	anti-PSMA heavy chain antibody clone ID 346172 (antibody, V domains shown, heavy chain-only antibody (UniAb), no light chain) VH: QLQLQESGPGLVKPSETLSLTCTVSGGSISSSSYYWGWIRQPPGKGLEWIGSIDYSGYTYYNPSLKSRVTISVDTSKNQFSLKLSSVTAADTAVYNCARHKAATADFDYRGQGTLVTVSS
264 fold over background	anti-PSMA heavy chain antibody clone ID 346181 (antibody, V domains shown, heavy chain-only antibody (UniAb), no light chain; also called HCAb 346181) VH: QLQLQESGPGLVKPSETLSLTCTVSGGSISSSNYFWGWIRQSPGKGLEWIGSIDYSGYTYYNPSLKSRVTISVDTSKNQFSLKLSSVTAADTAVYNCARHKAATADFDYRGQGTLVTVSS
25 fold over background	anti-PSMA heavy chain antibody clone ID 326109 (antibody, V domains shown, heavy chain-only antibody (UniAb), no light chain) VH: QLQLQESGPGLVKPSETLSLTCTVSGGSISSNSYYWGWIRQSPGKGLEWLGSIYDSGSTHYNPSLKSRVIISGDTSKNQFSLKLSSVTAADTAVYYCARHKAATADFDYRGQGTLVTVSS
282 fold over background	anti-PSMA heavy chain antibody clone ID 325920 (antibody, V domains shown, heavy chain-only antibody (UniAb), no light chain; also called Antibody 2) VH: QLQLQESGPGLVKPSETLSLTCTVSGGSISSSSYYWGWIRQPPGKGLEWIGSIDYSGYTYYNPSLQSRVTISVDTSKNQFSLKLSSVTAADTAVYNCARHKAATADFDYRGQGTLVTVSS
243 fold over background	anti-PSMA heavy chain antibody clone ID 346165 (antibody, V domains shown, heavy chain-only antibody (UniAb), no light chain) VH: QLQLQESGPGLVKPSETLSLTCTVSGGSISSSSYYWGWIRQPPGKGLEWIGSVDYSGYTYYNPSLQSRVTISVDTSKNQFSLKLSSVTAADTAVYNCARHKAATADFDYRGQGTLVTVSS
193 fold over background	anti-PSMA heavy chain antibody clone ID 325748 (antibody, V domains shown, heavy chain-only antibody (UniAb), no light chain) VH: QVQLVESGGGVVQPGRSLRLSCAASGFSFSSYGMHWVRQAPGKGLEGVAVIWYDGSNRYYADSVKGRFTISRDNSKNTLYLQMNSLRAEDTAVYYCAREPRIGYYYESSGYYSLDYRGQGTLVTVSS
163 fold over background	anti-PSMA heavy chain antibody clone ID 325836 (antibody, V domains shown, heavy chain-only antibody (UniAb), no light chain) VH: QVQLVESGGGVVQPGRSLRLSCAASGFSFRSYGMHWVRQAPGKGLEWVAVIWYDGSNKYYADSVKGRFTISRDYSKNTLYLQMNSLRAEDTAVYYCAREPRIGYYYDSSGYDSLDYRGQGTLVTVSS
109 fold over background	anti-PSMA heavy chain antibody clone ID 326029 (antibody, V domains shown, heavy chain-only antibody (UniAb), no light chain) VH: QVQLVESGGGVVQPGRSLRLSCAASGFSFSRYGMHWVRQAPGKGLEWVAVISYDGSNKYYADSVKGRFTISRDNSKNTLYLQMNSLRAEDTAVYYCAREPRVGYYYETSGYYSLDYRGQGTLVTVSS
80 fold over background	anti-PSMA heavy chain antibody clone ID 345490 (antibody, V domains shown, heavy chain-only antibody (UniAb), no light chain) VH: QVQLVESGGGLVKPGGSLRLSCAASGFSFSSYGMHWVRQAPGKGLEGVAVIWYDGSNRYYADSVKGRFTISRDNSKNTLYLQMNSLRAEDTAVYYCAREPRIGYYYESSGYYSLDYRGQGTLVTVSS
47 fold over background	anti-PSMA heavy chain antibody clone ID 345480 (antibody, V domains shown, heavy chain-only antibody (UniAb), no light chain) VH: QVQLVESGGGVVQPGRSLRLSCAASGFSFSSYGMHWVRQAPGKGLEWVAVIWYDGSNRYYADSVKGRFTISRDNSKNTLYLQMNSLRAEDTAVYYCAREPRIGYYYESSGYYSLDYRGQGTLVTVSS
210 fold over background	anti-PSMA heavy chain antibody clone ID 325867 (antibody, V domains shown, heavy chain-only antibody (UniAb), no light chain; also called Antibody 1) VH: QVQLVESGGGVVQPGRSLRLSCAASGFSFRSYGMHWVRQAPGKGLEWVAVIWYDGSNKYYADSVKGRFTISRDYSKNTLYLQMNSLRAEDTAVYYCAREPRIGYYYESSGYDSLDYRGQGTLVTVSS
84 fold over background	anti-PSMA heavy chain antibody clone ID 345443 (antibody, V domains shown, heavy chain-only antibody (UniAb), no light chain) VH: QVQLVESGGGVVQPGRSLRLSCAASGFSFSSYGMHWVRQAPGKGLEGVAVIWYDGSNRYYADSVKGRFTISRDNSKNTLFLQMNSLRAEDTAVYYCAREPRIGYYYESSGYYSLDYRGQGTLVTVSS
117 fold over background	anti-PSMA heavy chain antibody clone ID 326028 (antibody, V domains shown, heavy chain-only antibody (UniAb), no light chain) VH: QVQLVESGGGVVQPGRSLRLSCAASGFSFRSYGMHWVRQAPGKGLEWVAVISYDGSNKYYADSVKGRFTISRDYSKNTLYLQMNSLRAEDTAVYYCAREPRIGYYYDSSGYDSLDYRGQGTLVTVSS
125 fold over background	anti-PSMA heavy chain antibody clone ID 326084 (antibody, V domains shown, heavy chain-only antibody (UniAb), no light chain) VH: QVQLVESGGGVVQPGRSLRLSCAASGFSFSSYGMHWVRQAPGKGLEGVAVIWYDGSNRYYADSVKGRFTISRDNSKNTLYLQMNSLRAEDTAVYYCAREPRIGYYYDSSGYYSLDYRGQGTLVTVSS
14 fold over background	anti-PSMA heavy chain antibody clone ID 345447 (antibody, V domains shown, heavy chain-only antibody (UniAb), no light chain) VH: QVQLVESGGGVVQPGRSLRLSCAASGFSFSSYGMHWVRQAPGKGLEGVAVISYDGSNRYYADSVKGRFTISRDNSKNTLYLQMNSLRAEDTAVYYCAREPRIGYYYESSGYYSLDYRGQGTLVTVSS
13 fold over background	anti-PSMA heavy chain antibody clone ID 345438 (antibody, V domains shown, heavy chain-only antibody (UniAb), no light chain) VH: QVQLVESGGGVVQPGRSLRLSCAASGFSFSSYGMHWVRQAPGKGPEWVAVIWYDGSNKYYADSVKGRFTISRDNSKNTLYLQMNSLRAEDTAVYYCAREPRIGYYYESSGYYSLDYRGQGTLVTVSS
129 fold over background	anti-PSMA heavy chain antibody clone ID 326087 (antibody, V domains shown, heavy chain-only antibody (UniAb), no light chain) VH: QVQLVESGGGVVQPGRSLRLSCAASGFIFRSYGMHWVRQAPGKGPEWVAVIWYDGSNKYYADSVKGRFTISRDNSKNTLYLQMNSLRAEDTAVYYCAREPRIGYYYDSSGYDSLDYRGQGTLVTVSS
169 fold over background	anti-PSMA heavy chain antibody clone ID 325940 (antibody, V domains shown, heavy chain-only antibody (UniAb), no light chain) VH: QVQLVESGGGVVQPGRSLRLSCAASGFIFRSYGMHWVRQAPGKGPEWVAVIWYDGSNKYYADSVKGRFTISRDNSKNTLYLQMNSLRAEDTAVYYCAREPRIGYYYESSGYYSLDYRGQGTLVTVSS
112 fold over background	anti-PSMA heavy chain antibody clone ID 345497 (antibody, V domains shown, heavy chain-only antibody (UniAb), no light chain; also called HCAb 345497) VH: QVQLVESGGGVVQPGRSLRLSCAASGFSFSRYGMHWVRQAPGKGLEGVAVIWYDGSNRYYADSVKGRFTISRDNSKNTLYLQMNSLRAEDTAVYYCAREPRIGYYYESSGYYSLDYRGQGTLVTVSS
101 fold over background	anti-PSMA heavy chain antibody clone ID 345493 (antibody, V domains shown, heavy chain-only antibody (UniAb), no light chain) VH: QVQLVESGGGVVQPGRSLRLSCAASGFSFSRYGMHWVRQAPGKGLEWVAVIWYDGSNRYYADSVKGRFTISRDNSKNTLYLQMNSLRAEDTAVYYCAREPRIGYYYESSGYYSLDYRGQGTLVTVSS
68 fold over background	anti-PSMA heavy chain antibody clone ID 345463 (antibody, V domains shown, heavy chain-only antibody (UniAb), no light chain) VH: QVQLVESGGGVVQPGRSLRLSCAASGFIFRSYGMHWVRQAPGKGPEWVAVIWYDGSNKYYADSVKGRFTISRDNSKNTLYLQMNSLRAEDTAVYYCAREPRIGYYYESSGYYSLDYRGQGTLVTVSS
102 fold over background	anti-PSMA heavy chain antibody clone ID 345461 (antibody, V domains shown, heavy chain-only antibody (UniAb), no light chain) VH: QVQLVESGGGVVQPGRSLRLSCAASGFSFTSYGMHWVRQAPGKGLEGVAVIWYDGSNRYYADSVKGRFTISRDNSKNTLYLQMNSLRAEDTAVYYCAREPRIGYYYESSGYYSLDYRGQGTLVTVSS
87 fold over background	anti-PSMA heavy chain antibody clone ID 345436 (antibody, V domains shown, heavy chain-only antibody (UniAb), no light chain) VH: QVQLVESGGGVVQPGRSLRLSCAASGFSFSRYGMHWVRQAPGKGLEGVAVIWYDGSNKYYADSVKGRFTISRDNSKNTLYLQMNSLRAEDTAVYYCAREPRIGYYYESSGYYSLDYRGQGTLVTVSS
80 fold over background	anti-PSMA heavy chain antibody clone ID 345482 (antibody, V domains shown, heavy chain-only antibody (UniAb), no light chain) VH: QVQLVESGGGVVQPGRSLRLSCAASGFSFSSYGMHWVRQAPGKGLEGVAVIWYDGSNRYYADSVKGRFTISRDSSKNTLYLQMNSLRAEDTAVYYCAREPRIGYYYESSGYYSLDYRGQGTLVTVSS
200 fold over background	anti-PSMA heavy chain antibody clone ID 325742 (antibody, V domains shown, heavy chain-only antibody (UniAb), no light chain) VH: QVQLVESGGGVVQPGRSLRLSCAASGFSFSSYGMHWVRQAPGKGLEWVAVIWYDGSNKYYADSVKGRFTISRDYSKNTLYLQMNSLRAEDTAVYYCAREPRIGYYYESSGYDSLDYRGQGTLVTVSS
71 fold over background	anti-PSMA heavy chain antibody clone ID 345485 (antibody, V domains shown, heavy chain-only antibody (UniAb), no light chain) VH: QVQLVESGGGVVQPGRSLRLSCAASGFSFRSYGMHWVRQAPGKGLEWVAVIWYDGSNKYYADSVKGRFTISRDNSKNTMYLQMNSLRAEDTAVYYCAREPRIGYYYESSGYYSLDYRGQGTLVTVSS
138 fold over background	anti-PSMA heavy chain antibody clone ID 326027 (antibody, V domains shown, heavy chain-only antibody (UniAb), no light chain) VH: QVQLVESGGGVVQPGRSLRLSCAASGFSFRSYGMHWVRQAPGKGLEWVAVIWYDGSNKYYADSVKGRFTISRDNSKNTLYLQMNSLRAEDTAVYYCAREPRIGYYYDSSGYDSLDYRGQGTLVTVSS
38 fold over background	anti-PSMA heavy chain antibody clone ID 326116 (antibody, V domains shown, heavy chain-only antibody (UniAb), no light chain) VH: QVQLVESGGGVVQPGRSLRLSCAASGFSFSRYGMHWVRQAPGKGLEGVAVISYDGSNKYYADSVKGRFTISRDYSKNTLYLQMNSLRAEDTAVYYCAREPRIGYYYDSSGYDSLDYRGQGTLVTVSS
22 fold over background	anti-PSMA heavy chain antibody clone ID 345421 (antibody, V domains shown, heavy chain-only antibody (UniAb), no light chain) VH: QVQLVESVGGVVQPGRSLRLSCAASGFSFSSYGMHWVRQAPGKGLEGVAVIWYDGSNRYYADSVKGRFTISRDNSKNTLYLQMNSLRAEDTAVYYCAREPRIGYYYESSGYYSLDYRGQGTLVTVSS
23 fold over background	anti-PSMA heavy chain antibody clone ID 345444 (antibody, V domains shown, heavy chain-only antibody (UniAb), no light chain) VH: QVQLVESGGGVVQPGRSLRLSCAASGFTFSSYGMHWVRQAPGKGLEGVAVIWYDGSNRYYADSVKGRFTISRDNSKNTLYLQMNSLRAEDTAVYYCAREPRIGYYYESSGYYSLDYRGQGTLVTVSS
